In paper PMC5780041, “Endosomal Rab cycles regulate Parkin-mediated mitophagy” (eLife, 2018):

Columns and labels:
[1] = target: T1, S65 phosphorylated ubiquitin produced in bacterial cells (human, UniProt P0CG48 1-76, S65 phosphorylated); assay: ITC; 18 injections of 2 μl of 300 μM ubiquitin or phosphorylated ubiquitin into 200 μl of 30 μM GST-mRABGEF1 in the cell; 25°C; TBS buffer; single site binding model; conditions: both partners purified
T1 construct: human ubiquitin, the 76-residue mature product, from pET21a(+)/1xUb; Same construct as m13, phosphorylated in the bacteria by co-expressed membrane-anchored TcPINK1; also called monomeric phosphorylated ubiquitin; source: Superdex 75)

[2] = target: T2, 1x human ubiquitin (C-terminal His-tagged) (human, UniProt P0CG48 1-76); assay: as above; conditions: both partners purified
T2 construct: human ubiquitin, the 76-residue mature product (primers from the ATG to the codons of the last two glycines); In pET21a(+) between BamHI and XhoI; also called 1x ubiquitin; 1 × Ub; source: E. coli BL21-CodonPlus(DE3)-RIL, purified (Ni-NTA; for ITC also Superdex 75)

Kd [1]: 5.6 µM | Kd [2]: 2.2 µM
B1: GST-tagged mouse RABGEF1 (WT) 1-74aa (domain or fragment)
chain: not shown
notes: Expressed with 50 μM ZnCl2 in the medium; also called GST-mRABGEF1 (WT); GST-mRABGEF1 WT; source: E. coli BL21-CodonPlus(DE3)-RIL, purified (glutathione-Sepharose 4B; for ITC also Superdex 75); not shown: GST, N-terminal, kept
